# Experimental data published in patent US20240132604A1.
# Target: CHO-hCCR8 (human) (UniProt P51685)
# Assay: FACS binding, CHO-K1 cells overexpressing human CCR8
# Sequence of UniProt P51685 (P51685 whole entry): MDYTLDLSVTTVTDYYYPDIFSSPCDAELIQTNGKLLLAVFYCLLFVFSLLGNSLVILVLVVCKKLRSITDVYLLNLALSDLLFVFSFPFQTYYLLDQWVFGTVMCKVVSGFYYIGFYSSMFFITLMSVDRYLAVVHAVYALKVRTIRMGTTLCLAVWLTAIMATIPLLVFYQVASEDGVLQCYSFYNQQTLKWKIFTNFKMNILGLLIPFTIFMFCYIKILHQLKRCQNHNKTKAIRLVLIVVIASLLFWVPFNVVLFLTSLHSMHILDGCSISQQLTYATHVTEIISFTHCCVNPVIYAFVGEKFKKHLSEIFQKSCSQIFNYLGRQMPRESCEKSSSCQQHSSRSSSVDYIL
substance,measurement,value
GS-1811,EC50,0.658 nM
